From article PMC6393291 (Nucleic Acids Research, 2018)

Biological target: T1, MSL2-FLAG (D. melanogaster, UniProt P50534 1-773)
T1 sequence (looked up): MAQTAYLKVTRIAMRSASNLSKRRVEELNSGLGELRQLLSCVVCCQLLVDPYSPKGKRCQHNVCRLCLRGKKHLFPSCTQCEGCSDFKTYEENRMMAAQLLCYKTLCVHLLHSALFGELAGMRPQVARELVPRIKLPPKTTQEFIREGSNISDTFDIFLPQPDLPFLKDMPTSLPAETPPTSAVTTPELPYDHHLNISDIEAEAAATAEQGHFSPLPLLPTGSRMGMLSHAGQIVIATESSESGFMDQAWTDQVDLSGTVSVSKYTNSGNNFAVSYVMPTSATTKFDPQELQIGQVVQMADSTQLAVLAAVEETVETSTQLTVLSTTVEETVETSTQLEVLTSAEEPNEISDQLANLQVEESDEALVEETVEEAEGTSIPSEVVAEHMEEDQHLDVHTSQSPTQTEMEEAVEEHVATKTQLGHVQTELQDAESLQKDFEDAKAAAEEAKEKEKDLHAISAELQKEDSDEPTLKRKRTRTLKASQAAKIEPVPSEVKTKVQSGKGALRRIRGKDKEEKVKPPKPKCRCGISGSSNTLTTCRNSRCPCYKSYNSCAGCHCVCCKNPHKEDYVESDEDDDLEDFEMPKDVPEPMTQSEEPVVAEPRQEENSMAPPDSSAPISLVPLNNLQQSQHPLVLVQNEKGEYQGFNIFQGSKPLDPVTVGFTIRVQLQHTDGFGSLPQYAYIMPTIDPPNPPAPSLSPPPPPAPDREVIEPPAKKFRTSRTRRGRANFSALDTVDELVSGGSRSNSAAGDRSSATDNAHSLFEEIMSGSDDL
Test: co-IP

B1: CLAMP-FLAG (natural protein, D. melanogaster, UniProt Q9V9N4 1-561, looked up)
chain: MEDLTKNIIFTNAINGQPATIQYQTADGTILKQPKIEGQKTEQQPTFYYTTNGNGGTVNLAQLATTDDNKTCYIAQPVGGYNYALVNGMPLNQGAALGIATVDAQGRIQIVNQNKPIAANTISNISFKCDVCSDMFPHLALLNAHKRMHTDGEQQQQQQHNAQAGGDSIAVVSAQGLVQAQNIIGNGQMGQIQIVSSDTLEPVQQSVMQQQQHESKASKCINCGSSMLQQSKRKGPKQVRCESCMQAEQTAQQQQQLFVAQDGQMAHPVQIISTTPQAQAQLQQIVAAQTGGTTPKREASSGSGHHPVKKRNSQQMTKCQKCNGSGVVLVGQHSHASHSGVGGSVKQSVTVKTENPSKPFSCNICGGLFSRYSSLWSHKKLHSGEKNYKCSICGLAFAKAVYLKNHARIHTGEKPYKCQTCGMQFSQSPHLKNHERTHSGERPYVCGVCDKGFARHATLWNHRRIHTGEKPYKCEICGSAFSQAAHLKNHAKVHSGEKPYKCEICSAAFADRFALKRHRGIHQKYGQTAPRQTSSDGMIVHKQEIPDMEDEAQQEVIIGGL
- binding result: binds
